This is an account of results in article PMC8373167 (Advanced Science, 2021).

Data set [1] is classed as in vivo, mice. Here is the method: Supplemental Figure 5. Body weight monitoring following DX600 exposure was conducted in mice for 25 days. The experiment was carried out in 10 mice at 4-weeks of age. The mice were either […]
was repeated on day 0, day 4, day 11, day 18 and day 25, and the weight of the mice was […]
group (n = 5, weight from 26.5 ± 5.2 g to 41.2 ± 3.1 g) and the control group (n = 5, weight from […]

For data set [2], the system named is ACE2. The settings on record: cited from earlier work.
Data set [3] addresses T1, ACE2 (Homo sapiens, UniProt Q9BYF1). The data set can be described thus: biochemical.
Target sequence in this assay (Q9BYF1 18-805): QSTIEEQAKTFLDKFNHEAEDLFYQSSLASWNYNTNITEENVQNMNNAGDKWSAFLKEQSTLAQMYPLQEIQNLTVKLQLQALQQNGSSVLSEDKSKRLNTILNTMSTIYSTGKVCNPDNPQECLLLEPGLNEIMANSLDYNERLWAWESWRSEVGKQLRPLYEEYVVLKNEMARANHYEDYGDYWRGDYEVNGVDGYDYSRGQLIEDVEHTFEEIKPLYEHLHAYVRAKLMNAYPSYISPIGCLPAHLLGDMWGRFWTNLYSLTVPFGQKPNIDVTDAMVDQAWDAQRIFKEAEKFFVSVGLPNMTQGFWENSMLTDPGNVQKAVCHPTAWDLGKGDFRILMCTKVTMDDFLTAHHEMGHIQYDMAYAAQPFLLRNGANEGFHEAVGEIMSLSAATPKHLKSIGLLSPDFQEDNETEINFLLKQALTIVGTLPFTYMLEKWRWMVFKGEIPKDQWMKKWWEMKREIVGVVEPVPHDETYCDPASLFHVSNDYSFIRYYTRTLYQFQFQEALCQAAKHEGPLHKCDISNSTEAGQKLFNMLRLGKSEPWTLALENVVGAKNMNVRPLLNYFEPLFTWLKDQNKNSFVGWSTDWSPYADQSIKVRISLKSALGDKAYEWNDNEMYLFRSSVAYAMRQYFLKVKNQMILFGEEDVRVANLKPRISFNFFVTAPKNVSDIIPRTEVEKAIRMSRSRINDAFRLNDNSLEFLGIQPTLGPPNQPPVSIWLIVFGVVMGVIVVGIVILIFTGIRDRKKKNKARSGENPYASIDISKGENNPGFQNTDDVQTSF
Experimental: Briefly, recombinant human ACE2 protein (50 µg mL^−1; BP003061) was immobilized on the surface of the nanogold sensor chip, after the chip was activated by 1‐ethyl‐3‐(3‐dimethylaminopropyl)carbodiimide/N‐hydroxysuccinimide. […] K D, ka and kd were calculated using Trace Drawer Evaluation version 2.0 (Trace Software International, Saint‐Romain, France).
The format of data set [4] is physicochemical. Conditions: 0.01 M PBS, 37 °C, 50 µL tracer in 450 µL PBS, sampled at 1, 2, 4 h; stated within 2 h. As for the experimental part: The solution was analyzed by radio‐HPLC to assess the radiochemical purity. The HPLC was eluted with water‐CH3CN system (Phase A: 0.1% TFA H2O; Phase B: 0.1% TFA CH3CN) using gradient elution (0–5 min 20% B; 5–10 min 20%–80% B; 10–12 min 80% B; 12–15 min 80%–20% B) at a flow rate of 1.0 mL min^−1. The radiolabeling yield was 59.9 ± 3.9% (non‐decay corrected, n = 10) and the radiochemical purity was over 95%. […] At 1, 2, and 4 h time points, 10 µL aliquot was analyzed by radio‐HPLC to assess the radiochemical purity.
Supplemental Figure 2. […] (A) Saturation binding assay […]
assay of DX600. (C) hACE2 expression specifically determine the accumulation of 64Cu-HZ20 over HEK293-hACE2 and HEK293-WT cells for 2 h incubation at 37 °C. (D) Stability analysis

In data set [5] the target is T1, ACE2. Conditions: in vivo.
Target sequence in this assay (Q9BYF1 18-805): as above
Data set [6] addresses T1, ACE2. Conditions: PET/MR 2 h after injection, female volunteers #005 and #012.
Target sequence in this assay (Q9BYF1 18-805): as above
A short description of a further data set: in vivo. The settings on record: female, athymic nude, mouse, HepG2 xenograft tumor, iv, 3.7 MBq, total radioactivity.
The nature of another data set: clinical. The settings on record: human, in vivo, iv, total radioactivity.
For data set [7], the target named is T1, ACE2. The data set can be described thus: SPR; recombinant human ACE2 (50 ug/mL) immobilised on a nanogold sensor chip activated with EDC/NHS; dilutions of peptide flowed at 20 uL/min for 7 min; Nicoya OpenSPR.
Target sequence in this assay (Q9BYF1 18-740): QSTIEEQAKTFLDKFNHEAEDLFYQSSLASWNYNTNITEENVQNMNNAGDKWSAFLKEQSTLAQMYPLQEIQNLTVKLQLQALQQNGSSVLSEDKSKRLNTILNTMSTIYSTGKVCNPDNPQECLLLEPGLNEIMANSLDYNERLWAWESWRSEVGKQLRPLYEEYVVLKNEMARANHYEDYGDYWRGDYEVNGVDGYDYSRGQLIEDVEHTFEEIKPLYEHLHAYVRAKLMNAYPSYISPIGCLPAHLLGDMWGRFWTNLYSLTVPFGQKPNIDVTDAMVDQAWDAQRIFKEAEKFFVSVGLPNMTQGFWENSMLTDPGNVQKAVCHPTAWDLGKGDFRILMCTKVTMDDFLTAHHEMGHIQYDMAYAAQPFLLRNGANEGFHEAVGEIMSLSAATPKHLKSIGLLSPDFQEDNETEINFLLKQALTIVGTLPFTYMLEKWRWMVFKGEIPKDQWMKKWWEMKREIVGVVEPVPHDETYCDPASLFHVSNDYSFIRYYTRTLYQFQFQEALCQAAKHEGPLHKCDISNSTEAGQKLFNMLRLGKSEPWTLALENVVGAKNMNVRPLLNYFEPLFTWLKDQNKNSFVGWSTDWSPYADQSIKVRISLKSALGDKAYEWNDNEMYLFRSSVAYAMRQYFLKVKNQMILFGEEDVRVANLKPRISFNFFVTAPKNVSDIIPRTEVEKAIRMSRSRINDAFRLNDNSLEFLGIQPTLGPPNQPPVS

Experimental for in vivo: 5 × 10^6 of HepG2 cells were inoculated into the right front shoulder region of the mice to build the xenograft tumor model with ACE2 expression. When the tumor volumes were estimated to be 450–800 mm^3, the mice were used for the studies. […] Scans were performed at 60, 120, and 180 min after administration. […] Subsequently, animals were scanned at 60, 120, and 180 min post‐injection. Regions of interest were defined over tumor, heart, liver, lung, kidney, and muscle and uptake computed relative to the injected activity.
Tumor, heart, liver, lung, kidney and muscle were selected for analysis.

For `CC(=O)NCC(=O)N[C@@H](CC(=O)O)C(=O)N[C@@H](Cc1ccc(O)cc1)C(=O)N[C@@H](CO)C(=O)N[C@@H](Cc1cnc[nH]1)C(=O)N[C@H]1CSSC[C@@H](C(=O)N[C@H](C(=O)N[C@@H](Cc2ccc(O)cc2)C(=O)N2CCC[C@H]2C(=O)N[C@@H](CC(=O)O)C(=O)N2CCC[C@H]2C(=O)N[C@@H](CCC(=O)O)C(=O)NCC(=O)NCC(=O)NCC(N)=O)[C@@H](C)O)NC(=O)[C@H](CCCCN)NC(=O)[C@H](Cc2c[nH]c3ccccc23)NC(=O)[C@H](Cc2c[nH]c3ccccc23)NC(=O)[C@@H]2CCCN2C(=O)[C@H](Cc2ccc(O)cc2)NC(=O)[C@H](Cc2ccc(O)cc2)NC(=O)[C@H](CCCNC(=N)N)NC(=O)[C@H](CC(C)C)NC(=O)[C@@H]2CCCN2C(=O)[C@H](CO)NC1=O` [DX600], in data set [1] (mice 4 weeks old, n = 5, injections day 0, 4, 11, 18, 25), the “body weight at start” value came to 26.5 ± 5.2 g. The “body weight at end” value in data set [1] (mice, n = 5, 25 days, injections day 0, 4, 11, 18, 25) is given as 41.2 ± 3.1 g. Further, the “body weight versus saline control group” value in data set [1] (mice, n = 5 per group, 25 days) was “no significant difference”. The “stability to ACE2 catalyzed hydrolysis” value with ACE2 [2] is recorded as “stable”.

With `CC(C)C[C@@H]1NC(=O)[C@@H]2CCCN2C(=O)[C@H](CO)NC(=O)[C@@H](NC(=O)[C@H](Cc2c[nH]cn2)NC(=O)[C@H](CO)NC(=O)[C@H](Cc2ccc(O)cc2)NC(=O)[C@H](CC(=O)O)NC(=O)CNC(=O)CN2CCN(CC(=O)O)CCN(CC(=O)O)CCN(CC(=O)O)CC2)CSSC[C@@H](C(=O)N[C@H](C(=O)N[C@@H](Cc2ccc(O)cc2)C(=O)N2CCC[C@H]2C(=O)N[C@@H](CC(=O)O)C(=O)N2CCC[C@H]2C(=O)N[C@@H](CCC(=O)O)C(=O)NCC(=O)NCC(=O)NCC(N)=O)[C@@H](C)O)NC(=O)[C@H](CCCCN)NC(=O)[C@H](Cc2c[nH]c3ccccc23)NC(=O)[C@H](Cc2c[nH]c3ccccc23)NC(=O)[C@@H]2CCCN2C(=O)[C@H](Cc2ccc(O)cc2)NC(=O)[C@H](Cc2ccc(O)cc2)NC(=O)[C@H](CCCNC(=N)N)NC1=O` [HZ20], on ACE2 [3], the Kd was 100 nM.

For the compound `CC(C)C[C@@H]1NC(=O)[C@@H]2CCCN2C(=O)[C@H](CO)NC(=O)[C@@H](NC(=O)[C@H](Cc2c[nH]cn2)NC(=O)[C@H](CO)NC(=O)[C@H](Cc2ccc(O)cc2)NC(=O)[C@H](CC(=O)O)NC(=O)CNC(=O)CN2CCN(CC(=O)O)CCN(CC(=O)O)CCN(CC(=O)O)CC2)CSSC[C@@H](C(=O)N[C@H](C(=O)N[C@@H](Cc2ccc(O)cc2)C(=O)N2CCC[C@H]2C(=O)N[C@@H](CC(=O)O)C(=O)N2CCC[C@H]2C(=O)N[C@@H](CCC(=O)O)C(=O)NCC(=O)NCC(=O)NCC(N)=O)[C@@H](C)O)NC(=O)[C@H](CCCCN)NC(=O)[C@H](Cc2c[nH]c3ccccc23)NC(=O)[C@H](Cc2c[nH]c3ccccc23)NC(=O)[C@@H]2CCCN2C(=O)[C@H](Cc2ccc(O)cc2)NC(=O)[C@H](Cc2ccc(O)cc2)NC(=O)[C@H](CCCNC(=N)N)NC1=O` [^68Ga‐HZ20, metal not drawn], the “in vitro stability (radiochemical purity by radio-HPLC)” value in data set [4] is “stable”. In addition, the SUVmax breast in the data set with ACE2 [5] came out at 2.72. The SUVmax testis with ACE2 [5] was found to be 5.57. Moreover, in the data set with ACE2 [5], the blood-brain barrier penetration result is reported as “poor”. The “uptake in immature follicles” value in the data set with ACE2 [6] is listed as “no uptake”. Besides, the “uptake in stroma of ovary” value in the data set with ACE2 [6] is given as “slight uptake”. The SUV at 2 h in “in vivo” was 0.099 ± 0.0065 SUV. Besides, the tissue uptake per volume at 2 h in the data set “in vivo” is 0.56 %ID/mL. Moreover, the SUV at 1.5 h in “clinical” (female, SUVmax breast) came out at 1.78 ± 0.17 SUV; in the data set “clinical” (female, SUVmax breast, old group), 1.35 ± 0.22 SUV; in the data set “clinical” (female, SUVmax breast, young group) it was 2.21 ± 0.25 SUV; in the data set “clinical” (female, SUVmax gallbladder), 2.76 SUV; in the data set “clinical” (female, SUVmax ovary), 2.12 ± 1.42 SUV; in “clinical” (female, SUVmax renal cortex), 38.8 SUV. The SUV at 1.5 h was determined as 2.41 ± 0.34 SUV in the data set “clinical” (female, SUVmax uterus); 1.71 ± 0.08 SUV in “clinical” (SUVmax conjunctiva); 1.63 ± 0.11 SUV in the data set “clinical” (SUVmax esophagus); 1.59 ± 0.14 SUV in the data set “clinical” (SUVmax liver); 1.91 ± 0.18 SUV in “clinical” (SUVmax nasal); 1.63 ± 0.24 SUV in “clinical” (SUVmax pancreas). Also, the SUV at 1.5 h was 1.46 ± 0.13 SUV in the data set “clinical” (SUVmax rectum); 25.7 ± 1.39 SUV in “clinical” (SUVmax renal cortex (right kidney in Figure 7)); 22.2 ± 1.78 SUV in the data set “clinical” (SUVmax renal cortex, left kidney); 18.4 SUV in the data set “clinical” (SUVmax renal cortex, right kidney, person recovered from COVID-19, 7 months post infection, 90 min); 18.3 ± 1.42 SUV in “clinical” (SUVmax renal medulla); 0.75 SUV in the data set “clinical” (male, SUVmax gallbladder). The SUV at 1.5 h in the data set “clinical” (male, SUVmax gallbladder, male recovered from COVID-19, 90 min) is 4.32 SUV; in the data set “clinical” (male, SUVmax left testis), 4.58 ± 0.4 SUV; in “clinical” (male, SUVmax left testis, male recovered from COVID-19, 90 min), 8.65 SUV; in the data set “clinical” (male, SUVmax penis), 2 ± 0.25 SUV; in “clinical” (male, SUVmax renal cortex) it was 23.9 SUV; in “clinical” (male, SUVmax renal cortex, left kidney, male recovered from COVID-19, 90 min), 11.6 SUV. Moreover, the SUV at 1.5 h came out at 4.51 ± 0.54 SUV in “clinical” (male, SUVmax right testis); 8.79 SUV in “clinical” (male, SUVmax right testis, male recovered from COVID-19, 90 min); 0.48 SUV in the data set “clinical” (male, SUVmax small intestine); 4.46 ± 0.3 SUV in the data set “clinical” (male, SUVmax testis). Further, the SUV in “clinical” (female, SUVmax corpus luteum) is 7.35 SUV.

Regarding DOTA-DX600 (peptide), the Kd with ACE2 [7] stood at 100 nM.

Take DX600 (peptide): the Kd with ACE2 [7] amounted to 98.7 nM.
